From patent US6451762B1 (Novo Nordisk A/S, priority 1997, dated 2002)
“Also recorded” adds a separate entry of the source. Marks after values point to notes of the source that are not given here.

Legend:
[1] = Gel filtration on Sephacryl S-300 HR (aggregate formation, method 1); type: physicochemical; set-up: key to KAV: KAV=(VE-V0)/(VT-V0); fraction of available elution volume; conditions: for KAV: Sephacryl S-300 HR; for formation of high molecular weight soluble aggregates: gel filtration at neutral pH, formulation used (Table 1)
Protocol: A pH neutral aqueous buffer system is used in the gel filtration and the insulin derivatives in the aggregated state are applied to the column in the form of a pharmaceutical preparation at a concentration of 600 nmol insulin/ml. […] However, when the actual state of aggregation in a pharmaceutical preparation is to be assessed, the medium of the preparation, exclusive the Zn^2+ which is insulin bound, is used as the eluent for the gel filtration. A column of 28×1 cm is eluted at a rate of 15 ml/h. Insulin derivatives were injected (200 μl) as a standard formulation comprising 600 μM derivative, 200 or 300 μM Zn^2+, 20 mM NaCl (or varied), 16 mM phenol, 16 mM m-cresol, 7 mM sodium phosphate at pH 7.5. Exclusion limit of Sephacryl® S-300 HR is stated by the manufacturer, Pharmacia, as a molecular weight of 1,500 kDa for globular proteins and 400 kDa for linear dextrans. In practice the elution of solutes of different size is characterised by the available volume as KAV values: KAV=(VE-V0)/(VT-V0) where VE is elution volume, V0 is void volume, e.g. elution volume of blue dextran, VT is total volume. Thus, the KAV value is independent of column dimension. […]

[2] = Gel filtration method 2 on Superose 6HR (HPLC, 37° C.); type: physicochemical; conditions: 140 mM NaCl, 10 mM tris, pH 7.4; for KAV (Superose 6HR): standards; for KAV (Superose 6HR) 2Zn^2+/6 ins: 2 Zn2+/6 ins; for KAV (Superose 6HR) 3Zn^2+/6 ins: 3 Zn2+/6 ins
Protocol: An alternative method to measure the capability of insulin derivatives of forming soluble high molecular weight aggregates was developed, suitable for HPLC equipment. The column dimensions, injection volume, and flow rate correspond to the first method, whereas the temperature is increased to 37° C. and the phosphate buffer is changed to trishydroxymethylaminomethan hydrochloride and additional sodium chloride. The aggregated state of insulin is defined to elute before the gel filtration standard aldolase like in the first method.

Albumin = Albumin (Homo sapiens, UniProt P02768)
[3] = Disappearance after subcutaneous injection in pigs; conditions: pig, in vivo, sc
From the text: The gel filtration experiment using the conditions prescribed in this section is the direct physico-chemical method to reveal the potential aggregate formation property of an insulin derivative. Disappearance after subcutaneous injection in pigs reflects the combination of the albumin binding and polymer formation properties of the insulin derivative, besides a variety of biological factors.

[4] = Gel filtration on Sephacryl S-300 HR (aggregate formation, method 1); type: physicochemical; set-up: key to KAV: KAV=(VE-V0)/(VT-V0); fraction of available elution volume
[5] = pH 7.4 eluent, standards applied dissolved in water
[6] = eluent 125 mM NaCl, 20 mM sodium phosphate pH 7.4, sample 600 μM derivative, 200 μM Zn2+, 0-20 mM NaCl, phenol, m-cresol, pH 7.5

Molecule	KAV (Superose 6HR) 2Zn^2+/6 ins [2]	KAV (Superose 6HR) 3Zn^2+/6 ins [2]	Albumin binding Kass (Albumin)	Disappearance in pigs, T50% [3] [h]	other results
Albumin: molecular size standard, Mw 67 kDa [reference compound]	–	–	–	–	KAV [1, 5]: ~0.38
Aldolase: molecular size standard, Mw 158 kDa [reference compound]	–	–	–	–	KAV (Superose 6HR) [2]: 0.50; KAV [1, 5]: ~0.32
Asp^A21 Lys^B29(N^ε-tetradecanoyl-) des(B30) HI	0.55	0.46	0.97 10^5M^−1	16.4	–
B9Asp, B27Glu human insulin [reference compound]	–	–	0 (mol/l)^−1	–	KAV (Superose 6HR) [2]: 0.73; KAV [1, 5]: 0.71; KAV ([1]; pH 7.4 eluent, standards applied dissolved in water, listed as monomeric form of insulin): about 0.71; Disappearance T50% [3]: (1) h
Ferritin [reference compound]	–	–	–	–	KAV (Superose 6HR) [2]: 0.40; KAV [1, 5]: 0.19
Lys^B29(N^ε cholesteryloxycarbonyl)	–	–	–	–	KAV [1, 6]: 0.00
Lys^B29(N^ε decanoyl)	–	–	0.06 × 10^5 (mol/l)^−1	–	KAV ([1]; eluent 125 mM NaCl, 20 mM sodium phosphate pH 7.4, sample 600 μM, 300 μM Zn2+): 0.67; Disappearance T50% [3]: 5.1 h
Lys^B29(N^ε lithocholyl	–	–	–	–	KAV ([4]; Sephacryl S-300 HR, pH 7.4 eluent, Zinc free): 0.74
Lys^B29(N^ε ω-carboxynonadecanoyl) des(B30)	–	–	36 × 10^5 (mol/l)^−1	–	KAV [1, 6]: 0.04; Disappearance T50% [3]: 21.9 h
Lys^B29(N^ε-cholanoyl-) des(B30) HI	0.40	0.17	0.48 10^5M^−1	20.1	–
Lys^B29(N^ε-dehydrolithocholoyl-) des(B30) HI	0.05	0.03	0.26 10^5M^−1	>34	–
Lys^B29(N^ε-deoxycholoyl-γ-Glu-) des(B30) HI	0.20	0.07	0.03 10^5M^−1	13.9	–
Lys^B29(N^ε-hexadecanoyl-α-amido-γ-Glu-) des(B30) HI	0.38	0.41	0.56 10^5M^−1	15.3	–
Lys^B29(N^ε-lithocholoyl-) des(B30) HI	−0.01	0.23	0.38 10^5M^−1	>34	–
Lys^B29(N^ε-lithocholoyl-α-amido-γ-Glu-) des(B30) HI	−0.02	0.00	0.23 10^5M^−1	>34	–
Lys^B29(N^ε-lithocholoyl-β-Ala-) des(B30) HI	0.00	0.13	–	–	–
Lys^B29(N^ε-lithocholoyl-β-Asp-) des(B30) HI	0.18	0.11	–	–	–
Lys^B29(N^ε-lithocholoyl-γ-aminobutanoyl-) des(B30) HI	0.06	0.00	–	–	–
Lys^B29(N^εlithocholyl-α-Glu-) des(B30) human insulin	–	–	0.3 × 10^5 (mol/l)^−1	–	KAV [1, 6]: 0.53; formation of high molecular weight soluble aggregates [1]: only the first forms aggregates; also recorded: incapable of forming soluble high molecular weight aggregates; Disappearance T50% [3]: 11.8 h
Lys^B29(N^εlithocholyl-γ-Glu-) des(B30) human insulin [Lys^B29(N^ε lithocholyl-γ-Glu-) des(B30)]	0.00	−0.01	–	22.8	KAV [1, 6]: 0.04*; formation of high molecular weight soluble aggregates [1]: capable of forming soluble high molecular weight aggregates; formation of high molecular weight soluble aggregates ([1]; listed as Ly B^29(N^εlithocholyl-γ-Glu-) des(B30) human insulin): capable of forming high molecular weight soluble aggregates; Disappearance T50% [3]: 22.8 h
Lys^B29(N^εtetradecanoyl) des(B30) human insulin [Lys^B29(N^ε tetradecanoyl) des(B30), reference compound]	0.58	0.56	–	–	KAV [1, 6]: 0.51; formation of high molecular weight soluble aggregates [1]: incapable of forming soluble high molecular weight aggregates; Disappearance T50% [3]: 14.3 h
Lys^B29(N^εω-carboxyheptadecanoyl) des(B30) human insulin	–	–	25 × 10^5 (mol/l)^−1	–	KAV [1, 6]: 0.05; KAV ([1]; medium of the preparation as eluent: 5 mM sodium phosphate pH 7.5, 10 mM NaCl, 16 mM phenol, 16 mM m-cresol, 1.6% glycerol, 2-3 Zn2+/hexamer): about 0.45; formation of high molecular weight soluble aggregates [1]: capable of forming high molecular weight soluble aggregates; degree of aggregation in the published formulation ([1]; medium of the preparation as eluent, 10 mM NaCl, 2-3 Zn2+/hexamer): no high molecular weight aggregates of insulin derivatives was present; formation of aggregates ([4]; gel filtration, absence of Zn2+ (0 Zn2+/hexamer)): aggregates are not formed; Disappearance T50% [3]: 18.7 h
Thyroglobulin: molecular size standard, Mw 669 kDa [reference compound]	–	–	–	–	KAV (Superose 6HR) [2]: 0.28; KAV [1, 5]: 0.08
Ribonuclease: molecular size standard, Mw 13.7 kDa (protein, UniProt P61823 27-150, looked up) Ribonuclease pancreatic: KETAAAKFERQHMDSSTSAASSSNYCNQMMKSRNLTKDRCKPVNTFVHESLADVQAVCSQKNVACKNGQTNCYQSYSTMSITDCRETGSSKYPNCAYKTTQANKHIIVACEGNPYVPVHFDASV	–	–	–	–	KAV (Superose 6HR) [2]: 0.72; KAV [1, 5]: 0.63
Catalase: molecular size standard, Mw 232 kDa (protein, UniProt P00432 2-527, looked up) Catalase: ADNRDPASDQMKHWKEQRAAQKPDVLTTGGGNPVGDKLNSLTVGPRGPLLVQDVVFTDEMAHFDRERIPERVVHAKGAGAFGYFEVTHDITRYSKAKVFEHIGKRTPIAVRFSTVAGESGSADTVRDPRGFAVKFYTEDGNWDLVGNNTPIFFIRDALLFPSFIHSQKRNPQTHLKDPDMVWDFWSLRPESLHQVSFLFSDRGIPDGHRHMNGYGSHTFKLVNANGEAVYCKFHYKTDQGIKNLSVEDAARLAHEDPDYGLRDLFNAIATGNYPSWTLYIQVMTFSEAEIFPFNPFDLTKVWPHGDYPLIPVGKLVLNRNPVNYFAEVEQLAFDPSNMPPGIEPSPDKMLQGRLFAYPDTHRHRLGPNYLQIPVNCPYRARVANYQRDGPMCMMDNQGGAPNYYPNSFSAPEHQPSALEHRTHFSGDVQRFNSANDDNVTQVRTFYLKVLNEEQRKRLCENIAGHLKDAQLFIQKKAVKNFSDVHPEYGSRIQALLDKYNEEKPKNAVHTYVQHGSHLSAREKANL	–	–	–	–	KAV [1, 5]: 0.30
Ovalbumin: molecular size standard, Mw 43 kDa (protein, UniProt P01012 2-386, looked up) Ovalbumin: GSIGAASMEFCFDVFKELKVHHANENIFYCPIAIMSALAMVYLGAKDSTRTQINKVVRFDKLPGFGDSIEAQCGTSVNVHSSLRDILNQITKPNDVYSFSLASRLYAEERYPILPEYLQCVKELYRGGLEPINFQTAADQARELINSWVESQTNGIIRNVLQPSSVDSQTAMVLVNAIVFKGLWEKAFKDEDTQAMPFRVTEQESKPVQMMYQIGLFRVASMASEKMKILELPFASGTMSMLVLLPDEVSGLEQLESIINFEKLTEWTSSNVMEERKIKVYLPRMKMEEKYNLTSVLMAMGITDVFSSSANLSGISSAESLKISQAVHAAHAEINEAGREVVGSAEAGVDAASVSEEFRADHPFLFCIKHIATNAVLFFGRCVSP	–	–	–	–	KAV (Superose 6HR) [2]: 0.58
